From PMC4212957, “The serodominant secreted effector protein of Salmonella, SseB, is a strong CD4 antigen containing an immunodominant epitope presented by diverse HLA class II alleles” (Immunology, 2014)

What was measured:
[1] = molecular target: HLA-DRB1*04:01 (Homo sapiens, UniProt P01903+P01911, A100K/A169T/F76Y/I96L/K127E/L162R/M171V/N62H/P40V/Q125Y/R42H/S133A/S149N/S66Y/V115G/V209L/W38E); settings: competitive ELISA; ratio IC50 of peptide / IC50 of reference peptide HA 306–318; lower = higher affinity; ratio 20 or less high, 20–100 moderate; three independent experiments
[2] = molecular target: HLA-DRB1*11:01 (Homo sapiens, UniProt P01903+P01911, A100R/A169T/A87E/I96F/K41T/L162R/M171V/P40S/Q125H/Q178H/Q39Y/Q99D/R42S/S66Y/T262R/V115G/W38E); settings: competitive ELISA; ratio IC50 of peptide / IC50 of reference peptide HA 306–318; lower = higher affinity; ratio 20 or less high, 20–100 moderate; three independent experiments
[3] = molecular target: HLA-DRB1*01:01 (Homo sapiens, UniProt P01903+P01911, A100R/D57E/F55L/F60I/F76Y/I96L/L162R/M171V/P40L/Q125E/R42F/V115G/Y59C); settings: competitive ELISA; ratio IC50 of peptide / IC50 of reference peptide HA 306–318; lower = higher affinity; ratio 20 or less high, 20–100 moderate; three independent experiments
[4] = molecular target: T1, HLA-DRB1*15:02 (Homo sapiens, UniProt P01903+P01911, V115G); assay: Peptide/HLA-DR binding, competitive ELISA; settings: ratio IC50 of peptide / IC50 of reference peptide TFR 607–620, lower = higher affinity, ratio 20 or less high, 20–100 moderate, three independent experiments
T1 construct: HLA-DR heterodimers were purified from homozygous Epstein–Barr virus B-lymphoblastoid cell lines; host or cells: homozygous EBV B-lymphoblastoid cell line
Description: (§1) HLA-DR heterodimers were purified from homozygous Epstein–Barr virus B-lymphoblastoid cell lines (HPA Culture Collections, Salisbury, UK) by affinity chromatography with the monomorphic HLA-DRα monoclonal antibody, L243.[29],[30] Binding of the SseB peptide panel to the HLA-DR molecules HLA-DRB1*01:01, 03:01, 04:01, 07:01, 09:01, 11:01, 12:02, 15:01, 15:02 was assessed by competitive ELISA, as previously described, using an automated workstation.[29],[30] We evaluated the peptide concentration able to prevent binding of 50% of the labelled peptide (IC50). Data were expressed as relative affinity: ratio of the IC50 of the peptide to the IC50 of the reference peptide, which is a high binder to the HLA class II molecule. Unlabelled forms of the biotinylated peptides were used as reference peptides.

[5] = molecular target: HLA-DRB1*12:02 (Homo sapiens, UniProt P01903+P01911, A100R/A169T/D57E/D86V/F55L/H45Y/I96F/K41T/L162R/M171V/P40S/Q125H/Q178H/Q39Y/Q99D/R42G/S66L/T262R/V114A/V67L/W38E/Y59H/Y61H/Y89S); assay: Peptide/HLA-DR binding, competitive ELISA; settings: ratio IC50 of peptide / IC50 of reference peptide TFR 141–155, lower = higher affinity, ratio 20 or less high, 20–100 moderate, three independent experiments
Description: as §1

[6] = molecular target: T2, HLA-DRB1*03:01 (Homo sapiens, UniProt P01903+P01911, A100K/A102G/A103R/A169T/F55Y/I96L/K41T/L162R/M171V/P40S/Q125H/Q178H/Q39Y/R42S/S66N/T106N/T262R/W38E/Y61H); assay: Peptide/HLA-DR binding, competitive ELISA; settings: ratio IC50 of peptide / IC50 of reference peptide MT2-16, lower = higher affinity, ratio 20 or less high, 20–100 moderate, three independent experiments
T2 construct: HLA-DR heterodimers were purified from homozygous Epstein–Barr virus B-lymphoblastoid cell lines; host or cells: homozygous EBV B-lymphoblastoid cell line
Description: as §1

[7] = molecular target: T3, HLA-DRB1*09:01 (Homo sapiens, UniProt P01903+P01911, A100R/A103E/D57H/D86V/F55Y/F60I/F76Y/I96F/K127E/L162R/M171V/P40D/Q125H/Q99R/R33Q/R42F/S133A/S66N/T210M/V115G/W38K/Y107V/Y59G/Y89S); assay: Peptide/HLA-DR binding, competitive ELISA; settings: ratio IC50 of peptide / IC50 of reference peptide CTP 427–441, lower = higher affinity, ratio 20 or less high, 20–100 moderate, three independent experiments
T3 construct: HLA-DR heterodimers were purified from homozygous Epstein–Barr virus B-lymphoblastoid cell lines; host or cells: homozygous EBV B-lymphoblastoid cell line
Description: as §1

[8] = molecular target: T4, HLA-DRB1*15:01 (Homo sapiens, UniProt P01903+P01911); assay: Peptide/HLA-DR binding, competitive ELISA; settings: ratio IC50 of peptide / IC50 of reference peptide A3 152–166, lower = higher affinity, ratio 20 or less high, 20–100 moderate, three independent experiments
T4 construct: HLA-DR heterodimers were purified from homozygous Epstein–Barr virus B-lymphoblastoid cell lines; host or cells: homozygous EBV B-lymphoblastoid cell line
Description: as §1

[9] = molecular target: HLA-DRB1*07:01 (Homo sapiens, UniProt P01903+P01911, A100R/A102G/A103Q/D57E/D86V/E43K/F76Y/K127E/L162R/M171V/P40G/Q125H/Q99D/R33Q/R42Y/R54Q/S133A/S66F/T210M/V115G/Y107V/Y59L/Y89S); settings: competitive ELISA; ratio IC50 of peptide / IC50 of reference peptide HA 306–318; lower = higher affinity; ratio 20 or less high, 20–100 moderate; three independent experiments
[10] = tested on: draining lymph node cells of HLA-DR4 transgenic mice; assay: Murine IFN-γ ELISpot, HLA-DR4 transgenic mice primed with SseB; settings: mouse, in vivo
Excerpt: Mice transgenic for HLA-DR1 (that is, HLA-DRA1*0101/HLA-DRB1*0101) and HLA-DR4 (that is, HLA-DRA1*0101/HLA-DRB1*0401)[24]–[26] were bred and housed in the Centre for Biological Services at the Hammersmith campus, Imperial College London, UK, in accordance with Home Office regulations and College ethics review. Both transgenic lines are maintained on a C57BL/6 background as homozygotes for knockout of murine MHC Class II H2-Aβ.[27]
HLA-DR1 or HLA-DR4 transgenic mice were primed, by subcutaneous injection into the footpad, with 25 μg of recombinant SseB protein administered as a 1 : 1 emulsion with TiterMax® Gold (CytRx Corporation, Los Angeles, CA). Ten days after priming, popliteal draining lymph nodes were harvested and stimulated, in triplicate, at 2 × 10^5 cells per well with 25 μg of SseB peptide or recombinant protein in pre-coated murine IFN-γ ELISpot plates (2BScientific, Upper Heyford, Oxfordshire, UK). Culture medium was RPMI-1640 containing 2 mM L-glutamine, 50 U/ml penicillin G, 50 μg/ml streptomycin sulphate, 50 μM β-mercaptoethanol and 10% fetal calf serum. Cells were cultured at 37° and in 5% CO2 for 72 hr before assay development using a biotinylated anti-IFN-γ antibody, a horseradish peroxidase detection antibody and TMB substrate (2BScientific). Developed plates were left to dry before spot counting using an AID ELISpot reader (Autoimmun Diagnostika GMBH). Positive epitopes for a given transgenic line were defined as those where more than half of assayed animals gave a greater number of spot-forming cells than 2 SD over the mean of the no protein/peptide control.
Fig 1 Definition of HLA-DR specific T-cell epitopes in DR1 and DR4 transgenic mice. (a) HLA-DR1 (n = 5) and (b) HLA-DR4 (n = 6) mice were footpad primed with ssEB protein in combination with TiterMax® Gold adjuvant. Draining lymph node (DLN) cells were assayed by ELISpot at day 10 for interferon-γ (IFN-γ) T-cell responses to ssEB peptides and protein. A peptide was defined as containing a T-cell epitope for DR1 or DR4 HLA molecules if more than half of the mice assayed gave a greater number of spot-forming cells than 2 SD over the mean of the no peptide/protein control. The 2 SD value for each transgenic line is shown by a dotted line.

| Substance | Relative binding affinity of peptide to HLA-DR molecules DRB1*0401 [1] | Relative binding affinity of peptide to HLA-DR molecules DRB1*1101 [2] | Relative binding affinity of peptide to HLA-DR molecules DRB1*0101 [3] | Relative binding affinity of peptide to HLA-DR molecules DRB1*1502 [4] | Relative binding affinity of peptide to HLA-DR molecules DRB1*1202 [5] | Relative binding affinity of peptide to HLA-DR molecules DRB1*0301 [6] | Relative binding affinity of peptide to HLA-DR molecules DRB1*0901 [7] | Relative binding affinity of peptide to HLA-DR molecules DRB1*1501 [8] | Relative binding affinity of peptide to HLA-DR molecules DRB1*0701 [9] | IFN-γ ELISpot recall response / CD4 epitope in HLA-DR4 transgenic mice [10] |
| --- | --- | --- | --- | --- | --- | --- | --- | --- | --- | --- |
| 10: SseB overlapping library peptide, residues 91–110 (GDAKTKEEVPEDVIKYMRDN) [Peptide 10] | > 145 | > 278 | > 4149 | > 3 333 | > 136 | > 119 | > 689 | 58 | 87 | – |
| 12: SseB overlapping library peptide, residues 111–130 (GILIDGMTIDDYMAKYGDHG) [Peptide 12] | > 145 | > 278 | > 4149 | 1 826 | 105 | 18 | > 689 | 12 | 167 | – |
| 13: SseB overlapping library peptide, residues 121–140 (DYMAKYGDHGKLDKGGLQAI) [Peptide 13] | > 145 | > 278 | 2958 | 2 000 | > 136 | > 119 | > 689 | 12 | > 336 | – |
| 14: SseB overlapping library peptide, residues 131–150 (KLDKGGLQAIKAALDNDANR) [Peptide 14] | 13 | > 278 | 335 | > 3 333 | 71 | > 119 | 50 | 10 | 17 | CD4 epitopes detected |
| 15: SseB overlapping library peptide, residues 141–160 (KAALDNDANRNTDLMSQGQI) [Peptide 15] | > 145 | > 278 | > 4149 | > 3 333 | > 136 | 57 | > 689 | > 270 | > 336 | – |
| 16: SseB overlapping library peptide, residues 151–170 (NTDLMSQGQITIQKMSQELN) [Peptide 16] | > 145 | > 278 | 964 | > 3 333 | 52 | > 119 | > 689 | > 270 | > 336 | – |
| 17: SseB overlapping library peptide, residues 161–180 (TIQKMSQELNAVLTQLTGLI) [Peptide 17] | > 145 | > 278 | 18 | > 3 333 | > 136 | > 119 | > 689 | > 270 | 8 | – |
| MSSGNILWGSQNPIVFKNSF [Peptide 1] | 12 | > 278 | 447 | > 3 333 | 3 | > 119 | > 689 | 7 | 6 | – |
